Source: US20230100941A1, “MOLECULES TARGETING MUTANT RAS PROTEIN” (AELIN THERAPEUTICS, priority 2020, published 2023)
Ends that are not written are not given here.

Legend:
[1] = test system: HeLa cell line overexpressing mCherry-tagged KRAS G12V; assay: Cellular fluorescent imaging of FITC-labelled pept-ins; type: cell-based, human; conditions: 75 min after treatment
Method: Fluorescent cellular imaging was performed using HeLa cells that were transduced with lentiviral particles carrying a construct expressing KRAS G12V labeled N-terminally with mCherry. Cells were seeded in a black μclear® Cellstar® F-bottom 96-well plates (Greiner) in 100 μL full growth medium. […] Next, cells were fixed, washed and counterstained with the nuclear dye NucBlue™ (containing Hoechst 33342). Images were captured on a Leica confocal microscope.
To complement the co-immunoprecipitation approach, we also used a cellular imaging approach to show target engagement. To this end, we generated a HeLa cell line overexpressing mCherry-tagged KRAS G12V and FITC-labelled versions of the RAS-targeting pept-ins.

G12V mutant KRAS = biological target: T1, G12V mutant KRAS (Homo sapiens, UniProt P01116, G12V); assay: In vitro translation assay with streptavidin pull-down of biotinylated pept-ins, Western blot for KRAS; type: binding; conditions: 10 μM biotinylated pept-in
T1 construct: made in house; host or cells: cell-free: PURExpress In Vitro Protein Synthesis Kit (New England Biolabs), linear T7 PCR template
Method: (§1) In vitro translation assays were performed using the PURExpress® In Vitro Protein Synthesis Kit (New England Biolabs) according to the manufacturer's instructions. Briefly, linear DNA fragments containing T7 promotor and terminator sequences flanking the KRAS coding sequence were generated using PCR and purified using the MinElute PCR Purification Kit (Qiagen). 250 ng of linear DNA was subsequently used for the in vitro translation reaction, which was performed for 2 hours at 37° C. with shaking (1000 rpm). Indicated biotinylated pept-ins were mixed in the translation reactions from a 5 mM stock solution in 6M Urea to a final concentration of 10 μM. Upon completion of the translation reaction, biotinylated pept-ins were captured from the reaction mix using Streptavidin coated beads (Pierce) during 90 min at room temperature. Beads were next washed with TBS containing 0.1% Tween 20 and bound proteins were finally boiled off in 1×SDS loading dye (Bio-Rad) in TBS buffer. Proteins were resolved using Any kD 15-well Mini-PROTEAN gels (Bio-Rad) during SDS-PAGE and probed for KRAS after Western blotting using a mouse monoclonal KRAS-specific antibody (SC-30, Santa Cruz Biotechnology), which was detected with an HRP-coupled anti-mouse secondary antibody using chemiluminescence on a Bio-Rad Chemidoc MP imaging instrument.
(§2) To mimic this in vitro, we devised an in vitro translation setup producing either wild-type or mutant (G12V, G12C, G12D or G13D) KRAS in the presence of biotinylated RAS-targeting pept-ins. This allowed us to perform a streptavidin pull-down to capture the biotinylated pept-ins from the translation reaction and perform SDS-PAGE and Western blotting to probe the pulled-down fraction for the presence of KRAS. The biotinylated version of pept-in 04-004-N001, i.e. 04-004-N011, which harbours an APR window sequence derived from a wild-type APR, is predicted to target all RAS proteins independently from their mutation status.

G13D mutant KRAS = biological target: T2, G13D mutant KRAS (Homo sapiens, UniProt P01116, G13D); assay: as above; type: binding; conditions: 10 μM biotinylated pept-in
T2 construct: made in house; host or cells: cell-free: PURExpress In Vitro Protein Synthesis Kit (New England Biolabs), linear T7 PCR template
Method: as §1, §2

G12C mutant KRAS = biological target: T3, G12C mutant KRAS (Homo sapiens, UniProt P01116, G12C); assay: as above; type: binding; conditions: 10 μM biotinylated pept-in
T3 construct: made in house; host or cells: cell-free: PURExpress In Vitro Protein Synthesis Kit (New England Biolabs), linear T7 PCR template
Method: as §1, §2

G12D mutant KRAS = biological target: T4, G12D mutant KRAS (Homo sapiens, UniProt P01116, G12D); assay: as above; type: binding; conditions: 10 μM biotinylated pept-in
T4 construct: made in house; host or cells: cell-free: PURExpress In Vitro Protein Synthesis Kit (New England Biolabs), linear T7 PCR template
Method: as §1, §2

KRAS wild-type = biological target: T5, KRAS wild-type (Homo sapiens, UniProt P01116); assay: as above; type: binding; conditions: 10 μM biotinylated pept-in
T5 construct: made in house; host or cells: cell-free: PURExpress In Vitro Protein Synthesis Kit (New England Biolabs), linear T7 PCR template
Method: as §1, §2

[2] = biological target: T6, wild-type KRAS in RASless MEFs (Homo sapiens, UniProt P01116); assay: Cellular co-immunoprecipitation assay in RASless MEFs; type: cell-based, mouse; conditions: 25 μM biotinylated pept-in, 16 hours
T6 construct: host or cells: RASless mouse embryonic fibroblasts (HRAS/NRAS-null, endogenous KRAS removed)
Method: (§3) Cellular co-immunoprecipitation assays were performed using either KRAS wild-type or mutant G12V expressing RASless MEFs (see elsewhere) or human NCI-H441 lung adenocarcinoma tumor cells and N-terminally biotinylated pept-ins. Cells were seeded at a density of 300,000 cells in a clear 6-well plate (Cellstar, Greiner). One day after seeding, cells were treated with indicated pept-ins at a final concentration of 25 μM and incubated for […]. Next, cells were lysed with NP-40 lysis buffer (150 mM NaCl, 50 mM Tris HC1 pH8, 1% IGEPAL(NP40), 1xHalt phosphatase/protease inhibitors (Thermo), 1U/μl Universal Nuclease (Pierce)) and biotinylated pept-ins were captured with streptavidin-coated magnetic beads (Pierce) during 1 hours at room temperature. Beads were washed with NP40 lysis buffer at least 3 times, after which bound proteins were boiled off in 1× SDS loading dye (Bio-Rad) in NP40 lysis buffer. Proteins were resolved using Any kD 15-well Mini-PROTEAN gels (Bio-Rad) during SDS-PAGE and probed for KRAS after Western blotting using a rabbit polyclonal KRAS-specific antibody (12063-1-AP, Proteintech).
(§4) To this end, relevant MEF cells were treated with 25 μM biotinylated pept-ins overnight (16 hours). Next, cells were lysed, and pept-ins were immunoprecipitated from the lysates using streptavidin-coated beads. […]

[3] = biological target: T7, mutant G12V KRAS in RASless MEFs (Homo sapiens, UniProt P01116, G12V); assay: as above; type: cell-based, mouse; conditions: 25 μM biotinylated pept-in, 16 hours
T7 construct: host or cells: RASless mouse embryonic fibroblasts (HRAS/NRAS-null, endogenous KRAS removed)
Method: as §3, §4

| Substance | association with mCherry-labelled KRAS (inclusion-like perinuclear structures) [1] | pull-down of G12V mutant KRAS (G12V mutant KRAS) | pull-down of G13D mutant KRAS (G13D mutant KRAS) | pull-down of G12C mutant KRAS (G12C mutant KRAS) | pull-down of G12D mutant KRAS (G12D mutant KRAS) | pull-down of KRAS wild-type (KRAS wild-type) | co-precipitation of wild-type KRAS [2] | co-precipitation of mutant G12V KRAS [3] |
| --- | --- | --- | --- | --- | --- | --- | --- | --- |
| 04-015-N032: FITC-labelled version of pept-in 04-015-N001 (KVVVGAVGKGSKVVVGAVGK; also: FITC-labelled, site not given here) | associates with mCherry-labelled KRAS |  |  |  |  |  |  |  |
| 04-004-N011: biotinylated version of pept-in 04-004-N001 (KLSVFAIKGSKLSVFAIK; also: biotinylated, site not given here) |  | efficient pull-down | less efficient | efficient pull-down | less efficient | efficient pull-down | appeared to precipitate both wild-type and mutant G12V KRAS well | appeared to precipitate both wild-type and mutant G12V KRAS well |
